# Results published in paper doi:10.1101/2023.12.22.572193.
# Molecular target: PfCoronin^R100K/E107V-smHA (P. falciparum (Pikine isolate, SenP019.04))
# Test: affinity purification with mass spectrometry
substance,measurement,value
PfActin (from UniProt Q8I4X0 1-376) (natural protein),fold reduction of normalised abundance against PfCoronin^WT-smHA,3 fold
